The results in this text go back to the supplement of paper PMC10567573.

B1: KLHL14 (parent)
chain: YVIGGRNETGYLSSVECYNLETNE
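Also: lentivirally expressed fusions sorted by FACS into six bins by GFP to DsRed ratio, PSI derived from sequencing read proportions per bin multiplied by bin number.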

The series covers variants of B1. Briefly: protein stability index of a GFP-peptide fusion (GPS, HEK-293T) (PSI 1-6); higher = more stable. Particulars: c terminus: a fixed tail appended.
For WVIGGRNETGYLSSVECYNLETNE, the protein stability index was determined as 2.87.
The value for AVIGGRNETGYLSSVECYNLETNE was 4.43.
The value for NVIGGRNETGYLSSVECYNLETNE was 4.25; that for EVIGGRNETGYLSSVECYNLETNE was 4.45.
The value for TVIGGRNETGYLSSVECYNLETNE was 4.71; that for IVIGGRNETGYLSSVECYNLETNE was 2.06; that for DVIGGRNETGYLSSVECYNLETNE was 4.64.
Regarding LVIGGRNETGYLSSVECYNLETNE, the protein stability index turned out to be 2.96.
Then QVIGGRNETGYLSSVECYNLETNE, with 4.68; and KVIGGRNETGYLSSVECYNLETNE, with 4.12.
The value for PVIGGRNETGYLSSVECYNLETNE was 4.82; that for FVIGGRNETGYLSSVECYNLETNE was 2.19; that for GVIGGRNETGYLSSVECYNLETNE was 4.99.
Turning to CVIGGRNETGYLSSVECYNLETNE, the protein stability index was 3.48.
The value for RVIGGRNETGYLSSVECYNLETNE was 4.39; that for SVIGGRNETGYLSSVECYNLETNE was 4.63; that for MVIGGRNETGYLSSVECYNLETNE was 3.55.
In the case of VVIGGRNETGYLSSVECYNLETNE, the protein stability index was found to be 3.2.
Then HVIGGRNETGYLSSVECYNLETNE, with 4.61.
For the variant YDIGGRNETGYLSSVECYNLETNE, the protein stability index was 4.57.
Then YMIGGRNETGYLSSVECYNLETNE, with 3.87.
The value for YPIGGRNETGYLSSVECYNLETNE was 3.9.
With YQIGGRNETGYLSSVECYNLETNE, the protein stability index stood at 2.7.
Then YNIGGRNETGYLSSVECYNLETNE, with 4.24; and YHIGGRNETGYLSSVECYNLETNE, with 2.15; and YCIGGRNETGYLSSVECYNLETNE, with 2.87.
For the variant YAIGGRNETGYLSSVECYNLETNE, the protein stability index was determined as 3.08.
For the variant YYIGGRNETGYLSSVECYNLETNE, the protein stability index was 3.4.
The value for YGIGGRNETGYLSSVECYNLETNE was 4; that for YFIGGRNETGYLSSVECYNLETNE was 3.32.
The value for YWIGGRNETGYLSSVECYNLETNE was 2.44; that for YRIGGRNETGYLSSVECYNLETNE was 3.4; that for YSIGGRNETGYLSSVECYNLETNE was 3.89.
In the case of YEIGGRNETGYLSSVECYNLETNE, the protein stability index came to 4.59.
For YLIGGRNETGYLSSVECYNLETNE, the protein stability index was determined as 3.33.
Then YIIGGRNETGYLSSVECYNLETNE, with 2.14; and YKIGGRNETGYLSSVECYNLETNE, with 3.91; and YTIGGRNETGYLSSVECYNLETNE, with 3.5.
The value for YVIGGRKETGYLSSVECYNLETNE was 2.27.
Then YVIGGRPETGYLSSVECYNLETNE, with 1.84; and YVIGGRYETGYLSSVECYNLETNE, with 1.5.
As to YVIGGRCETGYLSSVECYNLETNE, the protein stability index came out at 1.7.
The value for YVIGGRFETGYLSSVECYNLETNE was 2.29; that for YVIGGRTETGYLSSVECYNLETNE was 1.85.
The value for YVIGGRLETGYLSSVECYNLETNE was 2.36; that for YVIGGRIETGYLSSVECYNLETNE was 1.74; that for YVIGGRDETGYLSSVECYNLETNE was 2.5.
Take YVIGGRAETGYLSSVECYNLETNE: the protein stability index was 2.03.
As to YVIGGRWETGYLSSVECYNLETNE, the protein stability index amounted to 1.63.
For the variant YVIGGRSETGYLSSVECYNLETNE, the protein stability index is 2.63.
The value for YVIGGRMETGYLSSVECYNLETNE was 1.66; that for YVIGGRQETGYLSSVECYNLETNE was 1.91.
The value for YVIGGRGETGYLSSVECYNLETNE was 1.99; that for YVIGGRVETGYLSSVECYNLETNE was 1.71.
YVIGGREETGYLSSVECYNLETNE: the protein stability index worked out at 2.59.
The value for YVIGGRRETGYLSSVECYNLETNE was 2.38; that for YVIGGRHETGYLSSVECYNLETNE was 2.45; that for YVIGGRNITGYLSSVECYNLETNE was 1.81.
The value for YVIGGRNPTGYLSSVECYNLETNE was 1.16; that for YVIGGRNDTGYLSSVECYNLETNE was 1.56; that for YVIGGRNATGYLSSVECYNLETNE was 1.45.
The value for YVIGGRNRTGYLSSVECYNLETNE was 1.95; that for YVIGGRNKTGYLSSVECYNLETNE was 1.89.
With YVIGGRNGTGYLSSVECYNLETNE, the protein stability index came to 2.44.
Then YVIGGRNWTGYLSSVECYNLETNE, with 2.08; and YVIGGRNSTGYLSSVECYNLETNE, with 2.09.
The value for YVIGGRNLTGYLSSVECYNLETNE was 1.32; that for YVIGGRNNTGYLSSVECYNLETNE was 1.8.
Then YVIGGRNFTGYLSSVECYNLETNE, with 1.99.
On to YVIGGRNVTGYLSSVECYNLETNE, for which the protein stability index was 1.78.
Then YVIGGRNQTGYLSSVECYNLETNE, with 1.88; and YVIGGRNTTGYLSSVECYNLETNE, with 1.78.
Then YVIGGRNMTGYLSSVECYNLETNE, with 2.21.
The value for YVIGGRNYTGYLSSVECYNLETNE was 1.84.
YVIGGRNHTGYLSSVECYNLETNE: the protein stability index stood at 2.02.
YVWGGRNETGYLSSVECYNLETNE: the protein stability index was found to be 1.02.
With YVNGGRNETGYLSSVECYNLETNE, the protein stability index turned out to be 1.81.
Then YVAGGRNETGYLSSVECYNLETNE, with 3.4; and YVDGGRNETGYLSSVECYNLETNE, with 2.39; and YVYGGRNETGYLSSVECYNLETNE, with 1.3.
The value for YVKGGRNETGYLSSVECYNLETNE was 1.58.
On to YVMGGRNETGYLSSVECYNLETNE, for which the protein stability index is 2.1.
Then YVSGGRNETGYLSSVECYNLETNE, with 1.61; and YVVGGRNETGYLSSVECYNLETNE, with 2.24; and YVLGGRNETGYLSSVECYNLETNE, with 1.84.
The value for YVHGGRNETGYLSSVECYNLETNE was 1.83.
For YVPGGRNETGYLSSVECYNLETNE, the protein stability index worked out at 2.65.
Then YVGGGRNETGYLSSVECYNLETNE, with 2.4; and YVFGGRNETGYLSSVECYNLETNE, with 1.76.
The value for YVEGGRNETGYLSSVECYNLETNE was 2.64.
Turning to YVTGGRNETGYLSSVECYNLETNE, the protein stability index was 2.18.
For YVQGGRNETGYLSSVECYNLETNE, the protein stability index was 2.06.
YVRGGRNETGYLSSVECYNLETNE: the protein stability index is 1.49.
Then YVCGGRNETGYLSSVECYNLETNE, with 1.66.
